Assay: label from the status in PepcDB records
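Note: failed if final PepcDB status was selected cloned or expressed and not failed if soluble or beyond.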

Sequence | protein production
MKKLILSALVLGGAMTFTAQAQNKAAEPAEEFFLEGRAMFIRQNYVGALDQFRLYRLHVGQEHALEVDYYSIIADYLLGADHDYVLSAVGNFLDNFPESIDKSRVRLLTGELMIRHEQYLRANTIFSDIDDRTLNDEDLAAYLLYYAYVRMQLSESNALAEQMLLKASESRGELGGRACLLLAAIQIEDGRIDEAEQTLSRLKNRPQFADEADAYIAEIQLLRGDYREAAEIADRLLSRNSPMRQRPQLLRVAGNAYYRLGDSNKTIDYLSDYSEKVGDRIAPADAYALGVTYYKQGLMKEALRPLAAATTDAGSLGAESALYLGQAQLAEGMTSEALMAFEKAATQDVNRPVREVGMYNMAMLMRSTGQSSFGQSVRIAENFLNEFPRSSHREQMAAILVESYFTGKDYNSSLRSIQKIAQPTASILAAKQFVLNRMAEQKEAAGYDSEALSFVSSSISMGNKGEYFPEAYFLRGNLRYRAGDFPTAAADYRAYISAAGDRDAANLPLGYYRLGYSLFNAERYDMALEAFKEYVSRSGIAPNLSADAYARIGDCRYMKRDFHGAREAYSMAYRVYPSGGDYALLRRARLEGLAKQYADQIQTLDKLIREFPDSRHLTAALYEKGCGAVLSGKHNVAEEAFNAVVKRSPDSREARQSSLQLGLLYYNTGRTKEAIRTYQRIIDRYPRSEETTVALSDLRSIYLEEDRIDEYSTYVRGLKDKVSIAPSETEQLGFLSAERKYRRRQPDARRDLEAYLERYPQGSDRHKAELYLADLDYQAGNADAAYNRYSRLVNSPGLPEDYKIDARLRLGRMQYERKEYKAALQSFQSVLDTDGAEAVRDQAVQGVTESAYADKDYRRVIDVIAGLKNQAALPHTLRLYRAKSYQALKMNREAIADYELLAEDFSTATGAEAVVMQAQLEMEAKRLSKAKSILEKFIAKSTPQQYWLARGFILLSDIYKKEGDTFTARQYLESLEKNYPNHEDDIHEQIAQRLE | failed
MKKLLFAIDDTEACERAAQYILDMFGKDADCTLTLIHVKPEFMLYGEAVLAAYDEIEMKEEEKAKLLTQKFSTFFTEKGINPFVVIKEGEPVEMVLEEAKDYNLLIIGSSENSFLNKIFASHQDDFIQKAPIPVLIVK | not failed
MKKLLTLFCLMLGLSSTQALAAADNPVELIKDGSRQVLDVLKQDNGKNTKQVRQQAEAIAVPLFDFPRMTALAVGLGWRQATPEQRNELTQQFQTLLVRTYSTTMTRFKTAQVSVQPNPVSGANGKDVTVKSSVTLPGNANPVAVDYVLNKGDKGWKIYNVSVEGASLVTVYRNSFNEEIRKNGVDGLIKLLQDKNAAPAPAAASAAKGKGLEHHHHHH | failed
MKKLNSKGIRLSELMEKWRRRKKGHFAVYTNEGKRFVLPLDYLNHPMLQVLLQMAEDEFGTTIDGPLKVPCDGSLMDHIIMLVRRSMSHDYDDVEKSSTSSTCKGASISSLFRGQSQLQSLVS | failed
MKKLNTNKLTEEQVNLFKNNLVYLATVDADGNPQVGPKGSMTVLDPSHLQYLEKTKGEAYENIKRGSKVALVAADVPSHTAVRVLATAEVHEDDDYAKKVLAKTEFPNAFVVNLNIEEVFA | not failed
MKKLYRYVLFTFLLIFSQLSFANWDLTDNQPIEISAQATNIEADIRALPEQHFFSNNDYAQVKRLLSTTISQQKEHATALKEALATYREDSSNQNWIAVETVHQSLTSLNLSKEQLLKLTNSTTREQLTGFGPYGVTQFYSELSITKLNIEYYLHYQIRSFKNLLKDLTISPVPIISVIFKVLCVFFIFSWWMKNSSRLINDFKTSKLENGTKPNFFIRSIWYLTRAHKAIAWLLLITVTLRIVSTLPSLQHLIFLEIFTWWILGGSIAVSFILEFIYRNSKHNKKEIIALRLSTVRHYVWGIIVAGVILQISSRTLGQGTIYAWINSLMYLFFVLLTIHTLRKWKPTVFERIERVDPLPLSIQWAKRNQKTFLISIAATACGAAWLSWRALQHSIIALLSQYAAFSHALAYLFRIEVAKQTEVAREQSNLVRVKGTAAFDYIAPGSEDSELIEDYAKDEMSALSRYLLTESPAVCVLSGERGVGTTTLLNRILNKVKNATPIYINCPYDGYSALLPELAKQLGLDEESSERDILQYLRNSDTCYLLAFDSAQRLVKPKVNGLADLMKLTNLLRRARKSHRVVLAIEKSCWRFIDRARGERLLFDLVTFMPKWDEKQIGQLLESRITLSEGQPTISFDGLVLPRQWDEENLTEEERARNGFYRILWDYSDGNPTVALRFFRLSLHRDKDTDAILVRLFRAPHSDDLETMPKPMLAVLRSIVQLEVASPADVCDCSRLSMAEVISTLRYFQSRGYIEWSDDKARISDHWFRHITNVLHRQHLLVK | failed
MKKNYTYPFTAIVGQEEMKLALILNIINPAISGVLIRGEKGTAKSTAVRALADILPEIEVIAGIPFNLAPDEDDETIRECFTVTGHAMPDPDNLEVTMHKVQVVELPVGATEDRVVGTLDLEHALKTGEKRIEPGLLAAAHRGILYVDEVNLLDDHVVDVLLDSAAMGVNTIEREGVSFSHPARFTLVGTMNPEEGELRPQLLDRFGLCVHVGGIADPQDRVTVMERRFAFEQDQERFCSEWQGESSKLAERIVAARELYPSVTISREHLLGIAKSCLKVGVDGHRGDIIIMKTAKTIAAWEGRHCVGSDDIDRAVALALPHRIRRQPLQDMVMDVGSLLGSKCTTN | failed
MKKQIALVALLFLGMSCFNASAQFKKFNLGKAIQAGKDAAQAISLSDADIAAMSKEYMEWMDKHNPLTKPDSEYGKRLERLTGNIKEVDGMKVNFGVYEVVDVNAFACGDGSVRICAGLMDVMTDEEVMAVIGHEIGHVIHTDSKDAMKNAYFRSAVKNAAGAASSQVAKLTDSELGAMAEALAGAQYSQKQEYEADAYGVEFCVKNNIDPYGMYKSLNKLLELSNGAPASSYMQRMFSSHPDTAKRVARAKELADKYKQLEHHHHHH | not failed
MKKQRNLRSMAAQAVEQVVEQGQSLSNILPPLQQKVSDKDKALLQELCFGVLRTLSQLDWLINKLMARPMTGKQRTVHYLIMVGLYQLLYTRIPPHAALAETVEGAIAIKRPQLKGLINGVLRQFQRQQEELLAEFNASDARYLHPSWLLKRLQKAYPEQWQSIVEANNQRPPMWLRINRTHHSRDSWLALLDEAGMKGFPHADYPDAVRLETPAPVHALPGFEDGWVTVQDASAQGCMTWLAPQNGEHILDLCAAPGGKTTHILEVAPEAQVVAVDIDEQRLSRVYDNLKRLGMKATVKQGDGRYPSQWCGEQQFDRILLDAPCSATGVIRRHPDIKWLRRDRDIPELAQLQSEILDAIWPHLKTGGTLVYATCSVLPEENSLQIKAFLQRTADAELCETGTPEQPGKQNLPGAEEGDGFFYAKLIKK | failed
MKKRIIFFLILLVSFRIFADYKSEYDNLLSARNIKGIAALLPKWEKAEPKNPELYIAYFNYYLLKGQRSTQSLDTYKKDNTNSLALVDQKTNKIAGYLNNNIWYEKEDVDKALSYLEKGLKFGKNRLDMYFGRIHILGEIGEYEKQSQKIIEVLKLGKEINHKWLWSMNEVIPSSESEHFFLISINEYYKNWLQKSSPQTLNAAEKTGEAQLKLYPKNIEVHNYLSLAYIGQGKFKEALNVLLKADKLANEDYVIIFNMGRCYEALKQYDKAKECYLRMKKNPNKQVQDMADQKLSELKKLTK | failed
MKKRIKELTDLLNRYRYDYYTKDAPSVSDSDYDKLYRELVTLEQSYPEYVLQDSPTQQVGGTILKGFEKYRHQYPLFSLQDAFSREELDAFDKRVKAEFPNATYLAELKIDGLSISLSYENGFLQVGATRGDGNIGENITENIKKIKDIPYQLSEPLTITVRGEAYMSRQSFKAINEARQENGETEFANPRNAAAGTLRQLDTSVVAKRQLATFLYQEASPTARNQQNEVLAELADLGFSVNPYYQLTSSMDEIWDFIKTIEAKRDQLAYDIDGVVIKVNSLAMQEELGFTVKAPRWAIAYKFPAEEKEAEILSVDWTVGRTGVVTPTANLTPVQLAGTTVSRATLHNVDYIAEKDIRIGDTVIVYKAGDIIPAVLNVVMSKRNQQEVMLIPKLCPSCGSELVHFEDEVALRCINPLCPSLIQRSLEHFASRDAMNITGLGPAIVEKLFLAGFVHDVADIYQLTKEDFMQLDGIKEKSADKLLAAIEASKSNSAEKLLFGLGIRHIGSKVSRLILEVYGDISALLTAKEEEIARIDGLGSTIAQSLTQYFEQKTAAILVDELKTAGVNMHYSGQKVNSDAALFGLTVVLTGKLNQLNRNEAKDKLEALGAKVTGSVSKKTDLVIAGSDAGSKLEKAKSLGIRIEDEDWLRQL | failed
MKKRNISVPSKAYLALIIATLCWGGNTVAGKLAVGHISPMAFTFLRWVLAVAIIFAISVPQLIKDWPVVKQRLPYFFVLGSVGYTAFNVFLYTALQHTSAINAAVIQAGIPMVIFVLNFVLFRTRVLFGQIAGFCLTISGVALLASHGDPLSLLQLEMNVGDAVMLLAVLVYAIYTVILRWKPAVDWRTLMAIPAFFALLTSVPLVFFEMSRESLIWPDQKGWMLVVYAGIFASLIAQILYIKGVEQIGANRAGLFINLVPVFGTLLSVFVLSETLHTYQIAALFMALAGIAVAERKKSPAS | failed
MKKSKHLKRPYLKRSHLKHSDKASSFKGLLKKEDNVISLENFKPKESEDLLENFSNKKDMQELLGLLNQFILQSYKVEKEFKDYKALYEWVIEILPQAIWVVNENGSFFYKNSLANQSHEVFNKAKLENFNTEIEHENKSYLVQQNSIQGKQIITATDISAQKRQERLASMGKISAHLAHEIRNPVGSISLLASVLLKHANEKTKPIVVELQKALWRVERIIKATLLFSKGIQANRTKQSLKTLESDLKEALNCYTYSKDIDFLFNFSDEEGFFDFDLMGIVLQNFLYNAIDAIEALEESEQGQVKIEAFIQNEFIVFTIIDNGKEVENKSALFEPFETTKLKGNGLGLALSLQVVKAHEGSIALLENQEKTFEIKILNAS | failed
MKKTLILILCLFLCTVSFARKRVKVACVGNSITYGIGVSDPDKESYPARLQQMLGEGYTVERFGKPGATLLNKGHRPFMQQKEFKDALAFAGDVVVIHLGVNDTDPRDWPNYRDFFIADYRALIDSFRVANPECRILIARLTPIADRHPRFESGTRDWHDEIQLAIETIAKYAQVQLIDFHAPLYPYPFMLPDAVHPDKEGAAVLAKTVYEGITGDFGGLQMPEIYTDNMVLQHGRLLTIQGKADAGEKVTVSIDRQKLQAVTGADGKWAVDVRPLKAGGPYTLTVSTEKRKLVYENVLAGEVWLCSGQSNMEFYLNWSATAAQDVPQAANSNIRFYDMKARWRTDAVEWDASVLDSLNHLQYYKDTRWTVCSPETAGNFSAVAYYFGKKLQDSLQVPVGLICNAIGGSPTEAWIDRSTLEYRFPAILRNWMQNDFIQDWVRGRAALNVKQSSNKLQRHPYEPCYLYESGIRPLEQFPVKGFIWYQGESNAHNREAHEKLFGLLVESWRKNWGDAELPFYFVQLSSIDRPSWTWFRDSQRRLMAEIPHTGMAVSSDRGDSLDVHPKQKREVGERLAAWALNKTYGYKNVIPSGPLYKSVVFSGGAAYISFDYAEELSTSDGKSLRTFEVAGDDGLFYPAQAVVENGKIKVWSDKVKEPETVRYGWQPFTRANLVNGAGLPASTFRAE | failed
MKKTPIVFILFLLNFICLGQADTTMLLSDKAVQIEGTDAVNDLYNFKFEKAEGYFLYLKSQHPNHPMPYFLMALSNWWKMMPYIDNNDYTNAYEKEFLYYIDQTIEKGEEQFKADDQNVEAAFFLCAAHGFKGRYFSENKGYVKAAFAGKSALHYLTYTKGKGDLNPEFLFGESIFNYYAEWIKEEYPLLKPLVGLFPKGDKAVGLAQLKECATNAFYTRIEAQYFLLRIYTNEENNSRAAYPYAKYLSENFPDNPYFQRVYARLSFELGYYAQCEKICYDINYKVNIEMPGYEVNTGRYAAYFLGRILYEKSDLEKSKFYLLKTAAFAESGNMNKMGYSLSAYYYLGMIEVKSQNYSEAEKFFLKVIDLGEDKQDNSAVYNYSYASYQLASVYEKQQNTKRAESFYKDAIKRVKKLDEKSYASTIKEITANSEAGLERLKQPKK | failed

Source: a protein production outcome set (Wang et al. 2014)
